Test results: patent US20220249563A1 (LEGEND BIOTECH IRELAND, published 2022)

Legend:
[1] = target: T1, extracellular domain of human DLL3 protein (aa27-466) having an N-terminal FLAG tag (AdipoGen, AG-40B-0151) (human, UniProt Q9NYJ7 27-466); assay: ELISA (protein), FACS (cells)
T1 construct: range 27-466; also called DLL3 ECD protein
T1 sequence (looked up): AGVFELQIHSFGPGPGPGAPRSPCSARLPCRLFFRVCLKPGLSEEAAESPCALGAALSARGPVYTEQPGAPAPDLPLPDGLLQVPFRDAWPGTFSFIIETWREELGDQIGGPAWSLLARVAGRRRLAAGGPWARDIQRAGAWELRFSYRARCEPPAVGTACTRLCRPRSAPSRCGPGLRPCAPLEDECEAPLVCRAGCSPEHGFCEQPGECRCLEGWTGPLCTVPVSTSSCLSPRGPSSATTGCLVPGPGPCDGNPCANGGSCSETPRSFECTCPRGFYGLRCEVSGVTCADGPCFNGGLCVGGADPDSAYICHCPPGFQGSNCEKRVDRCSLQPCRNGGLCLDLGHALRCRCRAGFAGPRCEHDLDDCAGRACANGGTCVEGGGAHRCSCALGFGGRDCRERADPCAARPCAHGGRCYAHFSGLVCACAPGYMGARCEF

[2] = target: T1, extracellular domain of human DLL3 …; assay: SPR (Biacore), HCAb captured by anti-human Fc, human DLL3 as analyte, 1:1 fit
Description: (§1) The camel and humanized sdAb sequences were fused with human IgG1 hinge and Fc, resulting the chimeric and humanized HCAb sequences. The DNAs encoding these HCAbs were synthesized and inserted into pTT5 vector. HCAb expression plasmids were used to transfect HEK293 cells. Crude HCAb proteins secreted to the medium were subjected to SPR affinity measurement as follows: briefly, capturing antibody anti-human Fc pAb (GE healthcare) was immobilized on a Biacore™ CM5 chip to approximately 6,000 RU using EDC-activated amine coupling chemistry. HCAb of interest was captured for 300 seconds onto the sensorchip surface. Human DLL3 (AdipoGen, AG-40B-0151) was flowed over the sensorchip surface at a series of increasing concentrations. Association and dissociation phases were monitored. Captured antibody and antigen were removed between cycles using 10 mM Glycine-HCl, pH 2.0 buffer in order to ensure a fresh binding surface for the antigen. The resulting sensorgrams were fit globally using a 1:1 binding model in order to calculate on- and off-rates (ka and kd, respectively), as well as affinities (KD).

[3] = target: T1, extracellular domain of human DLL3 …; assay: SPR (Biacore), captured antibody, human DLL3 as analyte
Description: as §1

B1: AS63956 (VHH)
VHH: QVHLVESGGGLVQAGGSLRLSCAASGFTYSNCCMRWYRQAPGKARELVSLINSSGGTYYADSVRGRFTISKDNAKNTLYLQMNSLKPEDTAMYYCAAYQAKYCSGPCAPPTDWGQGTQVTVSS
notes: camel sdAb; crude E. coli supernatant
B1: binds [1].

B2: AS64511VH6 HCAb (Fc fusion, not shown: a dimerising Fc or GST)
chain: EVQLVESGGGLVQPGGSLRLSCAASRATYSTNYISWFRQAPGKGREAVATITTGDGETAYADSVKGRFTISRDNAKNSVYLQMNSLRAEDTAMYYCAANLRIGGDWFDGRDFRAWGQGTLVTVSS
notes: humanized sdAb fused with human IgG1 hinge and Fc (humanized HCAb), crude HEK293 medium
B2 was tested, and the Kd [2] was 3.4 nM, the koff [2] was 0.00048 s⁻¹ and the kon [2] was 140000 M⁻¹ s⁻¹.

B3: AS64511 HCAb (Fc fusion, not shown: a dimerising Fc or GST)
chain: QVQLVESGGGSVQAGGSLRLSCAASRATYSTNYISWFRQAPGKEREAVATITTGDGETAYADSVKGRFTISRDNAKNTVYLQMNSLKPEDTAMYYCAANLRIGGDWFDGRDFRAWGQGTQVTVSS
notes: camel sdAb fused with human IgG1 hinge and Fc (chimeric HCAb), crude HEK293 medium
For B3, the Kd [2] was 3 nM, the koff [2] was 0.0004 s⁻¹ and the kon [2] was 130000 M⁻¹ s⁻¹.

B4: AS64511VH4 HCAb (Fc fusion, not shown: a dimerising Fc or GST)
chain: EVQLVESGGGLVQPGGSLRLSCAASRATYSTNYISWFRQAPGKGLEAVATITTGDGETAYADSVKGRFTISRDNAKNSLYLQMNSLRAEDTAVYYCAANLRIGGDWFDGRDFRAWGQGTLVTVSS
notes: as for B2
B4 gave a Kd [2] of 6 nM, a koff [2] of 0.00094 s⁻¹ and a kon [2] of 160000 M⁻¹ s⁻¹.

B5: AS64511VH5 HCAb (Fc fusion, not shown: a dimerising Fc or GST)
chain: EVQLVESGGGLVQPGGSLRLSCAASRATYSTNYISWFRQAPGKGLEAVATITTGDGETAYADSVKGRFTISRDNAKNSVYLQMNSLRAEDTAMYYCAANLRIGGDWFDGRDFRAWGQGTLVTVSS
notes: as for B2
B5 gave a Kd [2] of 2.9 nM, a koff [2] of 0.00047 s⁻¹ and a kon [2] of 160000 M⁻¹ s⁻¹.

B6: AS63997 HCAb (Fc fusion, not shown: a dimerising Fc or GST)
chain: QVRLVESGGGSVQAGGSLRLSCAGSFSGYGVSTMAWFRQAPGKEREGVAAITVGSGNTYYADSVKGRFTISRDNAKRTVFLQMNSLKPEDTAMYYCAVGYLSGGSWDVPGRYNYWGQGTQVTVSS
notes: as for B3
In the case of B6, the Kd [2] is reported as 16 nM, the koff [2] is reported as 0.0064 s⁻¹ and the kon [2] is reported as 390000 M⁻¹ s⁻¹.

B7: AS63997VH5 HCAb (Fc fusion, not shown: a dimerising Fc or GST)
chain: QVQLVESGGGVVQPGGSLRLSCAASFSGYGVSTMAWFRQAPGKGLEGVAAITVGSGNTYYADSVKGRFTISRDNSKNTVYLQMNSLRAEDTAMYYCAVGYLSGGSWDVPGRYNYWGQGTLVTVSS
notes: as for B2
B7 showed a Kd [2] of 37 nM, a koff [2] of 0.021 s⁻¹ and a kon [2] of 580000 M⁻¹ s⁻¹.

B8: AS63997VH6 HCAb (Fc fusion, not shown: a dimerising Fc or GST)
chain: QVQLVESGGGVVQPGGSLRLSCAASFSGYGVSTMAWFRQAPGKGREGVAAITVGSGNTYYADSVKGRFTISRDNSKNTVYLQMNSLRAEDTAMYYCAVGYLSGGSWDVPGRYNYWGQGTLVTVSS
notes: as for B2
B8 gave a Kd [2] of 33 nM, a koff [2] of 0.06 s⁻¹ and a kon [2] of 1.8e+06 M⁻¹ s⁻¹.

B9: AS63931 HCAb (Fc fusion, not shown: a dimerising Fc or GST)
chain: EVQLAESGGGSVQAGGSLRLSCAGSFSGYGVSTMAWFRQAPGKEREGVAAITVGSGNTYYADSVTGRFTISRDNAKRTVYLQMNSLKPEDTAMYYCAAGWLSGGSWHVPGRYNYWGQGTQVTVSS
Work on B9 yielded a Kd [3] of 47 nM, a koff [3] of 0.17 s⁻¹ and a kon [3] of 3.6e+06 M⁻¹ s⁻¹.

B10: AS64060 (VHH)
VHH: QVKLVESGGGSVQAGGSLRLSCAASGSTYCTYRMSWFRQAPGKEREFVAVIDSGGSTSYADSVKGRFTISRDNAKNTVYLQMNSLKPEDTAMYYCKTDPTIGCPQTYRYNYWGQGTQVTVSS
notes: as for B1
B10: binds [1].

B11: AS63987 (VHH)
VHH: QVRLVESGGGSVQAGGSLRLSCEATGYRNCMAWFRQAPGKEREGVAVIYTPSGITDYASSVKGRFTISQNNARNTQYLQMNSLKPEDTAMYYCAADRPFVCNIANMRRSSNWGRGTQVTVSS
notes: as for B1
B11: binds [1].

B12: AS63937 (VHH)
VHH: QVKLVESGGGSVQAGGSLRLSCAASGSTISSRPMAWFRQAPGKEREGVACIHTGLGRTYYADSVKGRFTISQDNAKNTVYLQVNSLKPEDTAMYYCAADSRRPCMVAAGYTYWGQGTQVTVSS
notes: as for B1
B12: binds [1].

B13: AS64380VH7 HCAb (Fc fusion, not shown: a dimerising Fc or GST)
chain: EVQLVESGGGLVQPGGSLRLSCAASGNTYSSNYMGWFRQAPGKGREEVAVIYTRGGHTYYVDSVRGRFTISQDNAKNSVYLQMNSLRAEDTAMYYCAASSRHRLGLNNPRDYDYWGQGTLVTVSS
notes: as for B2
Binder B13 has a Kd [2] of 45 nM, a koff [2] of 0.0015 s⁻¹ and a kon [2] of 32000 M⁻¹ s⁻¹.

B14: AS64380VH5 HCAb (Fc fusion, not shown: a dimerising Fc or GST)
chain: EVQLVESGGGLVQPGGSLRLSCAASGNTYSSNYMGWFRQAPGKGLEEVAVIYTRGGHTYYVDSVRGRFTISQDNAKNSLYLQMNSLRAEDTAVYYCAASSRHRLGLNNPRDYDYWGQGTLVTVSS
notes: as for B2
For B14, the Kd [2] was 26 nM, the koff [2] was 0.0015 s⁻¹ and the kon [2] was 59000 M⁻¹ s⁻¹.

B15: AS64380 HCAb (Fc fusion, not shown: a dimerising Fc or GST)
chain: EVQLVESGGGSVQAGGSLTLSCEASGNTYSSNYMGWFRQAPGKEREEVAVIYTRGGHTYYVDSVRGRFTISQDNAKNTVYLQMNSLKPEDTAMYYCAASSRHRLGLNNPRDYDYWGQGTQVTVSS
notes: as for B3
Binder B15 has a Kd [2] of 8.4 nM, a koff [2] of 0.0056 s⁻¹ and a kon [2] of 670000 M⁻¹ s⁻¹.

B16: AS64380VH6 HCAb (Fc fusion, not shown: a dimerising Fc or GST)
chain: EVQLVESGGGLVQPGGSLRLSCAASGNTYSSNYMGWFRQAPGKGLEEVAVIYTRGGHTYYVDSVRGRFTISQDNAKNSVYLQMNSLRAEDTAMYYCAASSRHRLGLNNPRDYDYWGQGTLVTVSS
notes: as for B2
B16 was tested, and the Kd [2] was 17 nM, the koff [2] was 0.0015 s⁻¹ and the kon [2] was 88000 M⁻¹ s⁻¹.

B17: AS64380VH4 HCAb (Fc fusion, not shown: a dimerising Fc or GST)
chain: EVQLVESGGGLVQPGGSLRLSCAASGNTYSSNYMGWFRQAPGKGLEEVAVIYTRGGHTYYVDSVRGRFTISRDNAKNSLYLQMNSLRAEDTAVYYCAASSRHRLGLNNPRDYDYWGQGTLVTVSS
notes: as for B2
In the case of B17, the Kd [2] is reported as 14 nM, the koff [2] is reported as 0.0044 s⁻¹ and the kon [2] is reported as 310000 M⁻¹ s⁻¹.

B18: AS64071 (VHH)
VHH: QVHLMESGGGSVQAGGSLRLSCVASGNTYRLNSMGWFRQAPGKEREGVAFIVMIRGTTYYGASVKGRFTISQDNAQTTVYLQMSSLKPEDTAMYYCAASTKDQFYVFNPIGYDSWGQGTQVTVSS
notes: as for B1
B18: binds [1].

B19: AS63965 (VHH)
VHH: QVQLVESGGGSVQAGGSLRLSCVASGYSSGSCRMGWYRQAPGKERELVSKVISDGTTVYADSVKGRFTLSQGNAKNTVYLQMSSLLPEDTAMYYCNAWCREYPGGILNNGWGQGTQVTVSS
notes: as for B1
B19: binds [1].

B20: AS63993 (VHH)
VHH: QVKLVESGGGLVQAGGSLRLSCTVSGFTFDDLVMAWFRQAPGKERQLVSLVATAGNSVYADSVKGRFTLSRDNAHSTAYLQMNGLKPEDTAMYYCAARTDSEHAFKFWGQGTQVTVSS
notes: as for B1
B20: binds [1].

B21: AS64617 HCAb (Fc fusion, not shown: a dimerising Fc or GST)
chain: QVQLVESGGGSVQAGGSLRLSCAASGYTDRCSMAWYRQAPGKERELVSRISTSGFTNYAASVKGRFTISQDNAKNTVYLQMNSLNPGDTGMYYCAIIVGRTCSLNYWGNGILVTVSS
With B21 the Kd [3] was 20 nM, the koff [3] was 0.0038 s⁻¹ and the kon [3] was 190000 M⁻¹ s⁻¹.

B22: AS63997VH4 HCAb (Fc fusion, not shown: a dimerising Fc or GST)
chain: QVQLVESGGGVVQPGGSLRLSCAASFSGYGVSTMAWFRQAPGKGLEGVAAITVGSGNTYYADSVKGRFTISRDNSKNTLYLQMNSLRAEDTAVYYCAVGYLSGGSWDVPGRYNYWGQGTLVTVSS
notes: as for B2
Binder B22 has a Kd [2] of 21 nM, a koff [2] of 0.018 s⁻¹ and a kon [2] of 840000 M⁻¹ s⁻¹.

B23: AS64006 (VHH)
VHH: QVHLVESGGGSVQAGGSLRLSCEVSGYTGDTTYIGWFRQAPGKEREGVALIYTSGTSEYYADSVKGRFIISRDNAKNTVYLQMNSLKPEDTAMYYCGARSRTMMYWGQGTQVTVSS
notes: as for B1
B23: binds [1].

B24: AS69443 HCAb (Fc fusion, not shown: a dimerising Fc or GST)
chain: EVQLAESGGGSVQAGGSLRLSCSASGFTFDDSDMAWYRQAPGDGCDLVSTISSDGSTYYADSVKGRFTISQDNAKNTVYLQMHSLKPEDTAVYYCAADFLTGFYYSDSPHPAPCSASDFGYWGQGTQVTVSS
B24 gave a Kd [3] of 0.96 nM, a koff [3] of 9e-05 s⁻¹ and a kon [3] of 94000 M⁻¹ s⁻¹.
